Experiment [1] addresses ITGA7 mutant S977A on HEK-293T cells (human) (UniProt P05556). In words: high-throughput flow cytometry on HEK-293T cells with the ITGA7 alanine mutant, high stringency, normalized to wild type. In general terms: A flow cytometer gives signals particle by particle.
Experiment [2] has as its target ITGA7 mutant P980A on HEK-293T cells (human) (UniProt P05556). The experiment is described as above.

Chain of ITGA7 mutant P980A on HEK-293T cells (human) (chain, as listed by the source P980A P980A, chain 1 of 2): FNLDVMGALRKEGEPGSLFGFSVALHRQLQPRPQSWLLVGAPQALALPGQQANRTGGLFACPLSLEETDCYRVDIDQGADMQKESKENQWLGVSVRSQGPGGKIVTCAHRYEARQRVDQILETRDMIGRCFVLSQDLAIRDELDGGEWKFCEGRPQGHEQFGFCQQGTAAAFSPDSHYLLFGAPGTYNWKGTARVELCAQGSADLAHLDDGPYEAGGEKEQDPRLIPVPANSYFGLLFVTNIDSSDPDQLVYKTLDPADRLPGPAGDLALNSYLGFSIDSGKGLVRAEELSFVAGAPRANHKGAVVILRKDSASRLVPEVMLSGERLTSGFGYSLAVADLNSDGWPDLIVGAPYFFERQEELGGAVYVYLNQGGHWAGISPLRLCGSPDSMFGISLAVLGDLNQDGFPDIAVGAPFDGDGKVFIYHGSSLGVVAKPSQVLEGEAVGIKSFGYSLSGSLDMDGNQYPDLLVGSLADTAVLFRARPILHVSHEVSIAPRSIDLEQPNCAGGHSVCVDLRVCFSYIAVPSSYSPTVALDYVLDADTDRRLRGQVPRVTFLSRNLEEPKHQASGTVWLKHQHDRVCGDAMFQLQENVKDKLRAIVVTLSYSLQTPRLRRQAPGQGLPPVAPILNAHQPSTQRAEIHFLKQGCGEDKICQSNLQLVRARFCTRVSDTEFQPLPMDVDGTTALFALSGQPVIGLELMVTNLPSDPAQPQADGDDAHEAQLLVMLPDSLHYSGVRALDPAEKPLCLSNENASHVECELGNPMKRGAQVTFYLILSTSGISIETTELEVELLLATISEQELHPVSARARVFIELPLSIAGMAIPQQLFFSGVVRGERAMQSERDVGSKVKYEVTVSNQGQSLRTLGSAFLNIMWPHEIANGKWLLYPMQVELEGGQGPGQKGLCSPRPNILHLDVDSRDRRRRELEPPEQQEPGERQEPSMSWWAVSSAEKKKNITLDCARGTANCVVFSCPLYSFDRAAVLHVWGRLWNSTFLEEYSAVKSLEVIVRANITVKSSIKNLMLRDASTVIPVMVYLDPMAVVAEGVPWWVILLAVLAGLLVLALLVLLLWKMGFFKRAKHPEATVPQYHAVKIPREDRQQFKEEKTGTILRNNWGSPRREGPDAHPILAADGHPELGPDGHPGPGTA
Chain of ITGA7 mutant P980A on HEK-293T cells (human) (P05556 21-798, chain 2 of 2): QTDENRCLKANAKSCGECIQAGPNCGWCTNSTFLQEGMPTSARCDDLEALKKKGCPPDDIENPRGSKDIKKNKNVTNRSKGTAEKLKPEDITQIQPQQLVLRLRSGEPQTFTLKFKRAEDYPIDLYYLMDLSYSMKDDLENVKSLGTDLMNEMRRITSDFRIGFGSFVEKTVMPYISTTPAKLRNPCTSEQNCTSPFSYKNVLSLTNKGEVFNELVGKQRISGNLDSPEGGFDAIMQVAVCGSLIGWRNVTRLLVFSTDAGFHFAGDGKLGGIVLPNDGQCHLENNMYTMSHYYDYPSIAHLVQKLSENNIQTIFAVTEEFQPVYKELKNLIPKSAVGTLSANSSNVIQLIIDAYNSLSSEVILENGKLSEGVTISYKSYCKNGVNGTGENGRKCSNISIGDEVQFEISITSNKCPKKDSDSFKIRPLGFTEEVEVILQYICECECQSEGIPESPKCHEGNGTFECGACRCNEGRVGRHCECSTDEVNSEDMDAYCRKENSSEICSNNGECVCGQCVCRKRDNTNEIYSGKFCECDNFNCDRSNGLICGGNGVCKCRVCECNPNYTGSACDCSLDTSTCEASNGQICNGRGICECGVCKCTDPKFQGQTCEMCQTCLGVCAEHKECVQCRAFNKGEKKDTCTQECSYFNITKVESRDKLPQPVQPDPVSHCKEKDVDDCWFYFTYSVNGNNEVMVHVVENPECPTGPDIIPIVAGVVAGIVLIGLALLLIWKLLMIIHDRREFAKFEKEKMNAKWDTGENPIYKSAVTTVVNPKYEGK
Chain of ITGA7 mutant S977A on HEK-293T cells (human) (chain, as listed by the source S977A S977A, chain 1 of 2): as the sequence (chain, as listed by the source P980A P980A, chain 1 of 2) above, with S944A, A947P counted along it
Chain of ITGA7 mutant S977A on HEK-293T cells (human) (P05556 21-798, chain 2 of 2): as the sequence (P05556 21-798, chain 2 of 2) above

B1: VL3VHK20TFT Fab (Fab, V domains shown)
VH: QVQLVQSGAEVKKPGASVKVSCKASGYTFTKYWINWVRQAPGQGLEWMGIIYPGSSTSNYNEKFKTRVTMTVDTSTSTAYMELSSLRSEDTAVYYCVKNDNWGQGTLVTVSS
VL: DIQMTQSPSSLSASVGDRVTITCRASESVDNYGISFMNWFQQKPGKAPKLLIYAASDLGSGVPSRFSGSGSGTDFTLTISSLQPEDFATYYCHQSKEVPYTFGQGTKLEIK
Turning to B1, the Binding Reactivity (% WT) in experiment [1] stood at 8 % WT; in experiment [2], 1.1 % WT.

The record behind these values is patent US20210147526A1.
